Results published in PMC8683085, “Serine ADP-ribosylation marks nucleosomes for ALC1-dependent chromatin remodeling” (eLife, 2021).

How the values were obtained:
[1] = biological target: H2BS6/H3S10ADPr4 nucleosome (UniProt P68431 22-136; P62805 1-103, H3A21C, tetra-ADP-ribose on S6 | tetra-ADP-ribose on S10); assay: cell-based or functional assay
PARP1 SerADPr_(short) = biological target: T1, PARP1 SerADPr_(short) (UniProt P09874 1-1014, relatively short serine-linked ADP-ribose chains; sites not told); assay: co-IP; purified components: 100 nM FLAG-ALC1, 50 nM unmodified or H3S10ADPr3 nucleosomes, 100 nM PARP1 (unmodified, SerADPr long or short); 100 mM KCl, 25 mM HEPES pH 7.9, 2 mM MgCl2, 5% glycerol, 0.1% NP-40, 1 mM DTT; anti-FLAG M2 magnetic resin; western blot; details: both partners purified
T1 construct: PARP1, full-length construct, as m15; also called serine-auto-ADP-ribosylated PARP1 with relatively short chains; automodified PARP1
T1 sequence (P09874 whole entry): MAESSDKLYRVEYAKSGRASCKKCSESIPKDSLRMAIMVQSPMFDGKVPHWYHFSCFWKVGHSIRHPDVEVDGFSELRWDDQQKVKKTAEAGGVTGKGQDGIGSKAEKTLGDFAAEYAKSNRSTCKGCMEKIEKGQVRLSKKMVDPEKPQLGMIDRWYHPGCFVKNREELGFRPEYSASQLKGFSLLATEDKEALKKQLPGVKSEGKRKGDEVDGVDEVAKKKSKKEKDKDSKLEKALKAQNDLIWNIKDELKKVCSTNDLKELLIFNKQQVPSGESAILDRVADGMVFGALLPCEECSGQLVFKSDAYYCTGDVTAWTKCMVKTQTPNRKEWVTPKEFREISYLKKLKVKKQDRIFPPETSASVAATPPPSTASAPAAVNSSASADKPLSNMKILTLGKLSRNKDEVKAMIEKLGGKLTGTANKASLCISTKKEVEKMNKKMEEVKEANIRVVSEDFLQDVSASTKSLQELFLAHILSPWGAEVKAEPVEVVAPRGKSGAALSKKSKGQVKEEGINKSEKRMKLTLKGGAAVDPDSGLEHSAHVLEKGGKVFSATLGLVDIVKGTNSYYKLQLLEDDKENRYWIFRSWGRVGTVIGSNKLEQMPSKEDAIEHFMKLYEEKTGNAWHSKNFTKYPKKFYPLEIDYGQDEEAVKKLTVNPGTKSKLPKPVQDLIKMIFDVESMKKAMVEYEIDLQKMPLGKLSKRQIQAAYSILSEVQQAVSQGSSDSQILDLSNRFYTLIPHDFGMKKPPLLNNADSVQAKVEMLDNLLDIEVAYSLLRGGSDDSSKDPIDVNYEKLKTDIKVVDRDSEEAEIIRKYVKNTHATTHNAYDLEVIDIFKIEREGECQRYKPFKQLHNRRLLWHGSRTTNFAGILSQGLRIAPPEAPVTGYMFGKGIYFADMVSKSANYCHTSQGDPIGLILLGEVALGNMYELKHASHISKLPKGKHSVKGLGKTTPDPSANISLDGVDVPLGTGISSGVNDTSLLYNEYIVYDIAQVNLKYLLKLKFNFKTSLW

PARP1 SerADPr_(long) = biological target: T2, PARP1 SerADPr_(long) (UniProt P09874 1-1014, long serine-linked ADP-ribose chains; a small population of aspartate- and/or glutamate-linked ADPr; sites not told); assay: as above; details: both partners purified
T2 construct: PARP1, full-length construct, as m15; also called serine-auto-ADP-ribosylated PARP1 with long chains; automodified PARP1
T2 sequence (P09874 whole entry): as above

B1: ALC1 (full-length, 6xHis-1xFLAG-ALC1) (enzyme, UniProt Q86WJ1 1-897, looked up)
chain: MERAGATSRGGQAPGFLLRLHTEGRAEAARVQEQDLRQWGLTGIHLRSYQLEGVNWLAQRFHCQNGCILGDEMGLGKTCQTIALFIYLAGRLNDEGPFLILCPLSVLSNWKEEMQRFAPGLSCVTYAGDKEERACLQQDLKQESRFHVLLTTYEICLKDASFLKSFPWSVLVVDEAHRLKNQSSLLHKTLSEFSVVFSLLLTGTPIQNSLQELYSLLSFVEPDLFSKEEVGDFIQRYQDIEKESESASELHKLLQPFLLRRVKAEVATELPKKTEVVIYHGMSALQKKYYKAILMKDLDAFENETAKKVKLQNILSQLRKCVDHPYLFDGVEPEPFEVGDHLTEASGKLHLLDKLLAFLYSGGHRVLLFSQMTQMLDILQDYMDYRGYSYERVDGSVRGEERHLAIKNFGQQPIFVFLLSTRAGGVGMNLTAADTVIFVDSDFNPQNDLQAAARAHRIGQNKSVKVIRLIGRDTVEEIVYRKAASKLQLTNMIIEGGHFTLGAQKPAADADLQLSEILKFGLDKLLASEGSTMDEIDLESILGETKDGQWVSDALPAAEGGSRDQEEGKNHMYLFEGKDYSKEPSKEDRKSFEQLVNLQKTLLEKASQEGRSLRNKGSVLIPGLVEGSTKRKRVLSPEELEDRQKKRQEAAAKRRRLIEEKKRQKEEAEHKKKMAWWESNNYQSFCLPSEESEPEDLENGEESSAELDYQDPDATSLKYVSGDVTHPQAGAEDALIVHCVDDSGHWGRGGLFTALEKRSAEPRKIYELAGKMKDLSLGGVLLFPVDDKESRNKGQDLLALIVAQHRDRSNVLSGIKMAALEEGLKKIFLAAKKKKASVHLPRIGHATKGFNWYGTERLIRKHLAARGIPTYIYYFPRSKSAVLHSQSSSSSSRQLVP
notes: ALC1 (CHD1L), full-length gene synthesized by Twist Biosciences; also called FLAG-tagged ALC1; recombinant, full-length ALC1; source: Sf9 (baculovirus), purified (anti-FLAG M2 magnetic resin, FLAG peptide elution); not shown: FLAG, N-terminal, kept
With B1 the “ALC1 remodeling rate constant relative to the unmodified nucleosome (REA assay)” value [1] was about 370 fold, the binding result (PARP1 SerADPr_(short)) was “binds” and the binding result (PARP1 SerADPr_(long)) was “binds”.
